Assay results reported in the RNAGym collection of RNA variant scans (doi:10.1073/pnas.2313332121).

B1: TPR t1 (parent)
chain: GACCAAUCUGCCCUCAGAGCUCGAGAACAUCUUCGGAUGCAGAGGAGGCAGGCUUCGGUGGCGCGAUAGCGCCAACGUCCUCAACCUCCAAUGCAUCCCACCACAUGAUGAUGCCUGAAGAGCCUUGGUUUUUUG

Variants of: B1
Assay: polymerase ribozyme fitness, log enrichment relative to wild type (log ratio); higher = more active; in vitro selection for triplet polymerase activity
In short: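 Fitness compares each genotype's enrichment to that of the wild type on a logarithmic scale, averaging replicates with inverse-variance weights. The logarithm is base 2. Enrichment came from Illumina sequencing of input and output libraries after one triplicate round of in vitro selection, which included frozen incubation at −7 °C, of PCR-built, transcribed mutant libraries of each subunit of a heterodimeric triplet polymerase ribozyme. Only genotypes with ≥10 input reads and ≥1 read per output were kept.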

Point of comparison: A2U G10U A18G U33G G60A C124A, “polymerase ribozyme fitness (log ratio)” value -6.77. Against it:
- C3G G93A — higher, -2.07
- A2U C4A C56G U78C C79G C101U — higher, -3.31
- A2U C20U G63C C89A A111C C123A — higher, -4.79
- A2U A43U — higher, -3.48
- C3U C4A — higher, -1.77
- C3U C79U — higher, -0.681
- C3G U112A — higher, -0.0942
- A2U C89G — higher, -5.02
- C3U C123A — higher, 0.564
- C3U C123G — higher, 1.6
- A2U G52C — higher, -3.28
- A2U A41C C114U U133G — higher, -5.64
- C3U C20G G113A — higher, -1.16
- C3U G10U A29G G44U G57C C82U A105U G120C — higher, -6.47
- A2C C62U — higher, -2.03
- C3G C73G — higher, -3.19
- C3U C53G — higher, -0.501
- A2C C40G — higher, -2.5
- C3U C56A G69A C72A C101U U112A C123G — higher, -5.58
- A2U C8A G19U A24U A26U U33C A108G A111C A121G — lower, -7.47
- A2U C88G — higher, -3.37
- A2U G45A C62U C115U U133A — higher, -2.99
- C3U C62G U106A G113A — higher, -4.93
- C3A G69A — higher, -3.74
- A2G C72U C88U C124A — higher, 1.45
- C3A G52U C123A — higher, -0.759
- A2C C72U G120U — higher, -2.42
- C3A C124G — higher, 1.55
- A2G C8G G57U C85A — higher, -1.4
- A2C G47U U78C U112C — higher, -1.88
- C3A A6C A46G C49G G69C C104U — higher, -3.86
- C3A G61C — higher, -3.47
- A2U C56A U106A C115G — higher, -4.51
- A2G G51A — higher, -2.94
- C3U C115U — higher, -1.53
- C3U C12A A91U — higher, -2.92
- A2C C85U — higher, -3.37
- A2G C99U C101A A121G C124G — higher, -2.5
- C3U A43C U87G — higher, -3
- A2U A50G G71U A118G — higher, -2.92
- A2G C40U U55C — higher, -1
- C3A G52U — higher, -1.75
- A2U C8G C101G — higher, -2.67
- A2U C49U — higher, -3.77
- C3A G17U A18C A24U U32G C40G G42U A43G U109C — within 0.2 log units, -6.6
- A2C U116A — higher, -4.2
- A2U C15A A16C G17A C72A C85G A118U C124G — higher, -2.91
- A2U G23U G60U C79U G110A — higher, -6
- A2G C12G C20A G69U U78C U130C — higher, -1.63
- A2U G19U G25U A26G A27U — higher, -6.04
- A2G G60A — higher, -0.122
- A2G C56U — higher, 0.13
- A2G C56G — higher, -1.69
- C3A U116C — higher, -2.44
- A2G U87A U112A — higher, 1.3
- A2U U14A G69U C82U A119C G120U — higher, -2.15
- A2C C53U U81G — higher, -4.15
- A2C C56U — higher, -0.967
- A2U C40G C53G C72G — higher, -2.9
- A2C C76U — higher, -2.06
- C3A G48U G71C C101A G127A — higher, -3.71
- C3U C13U — higher, -0.225
- A2C G69C A121U — higher, -0.282
- C3A G48A C86U A121G G127C U131G U132A — higher, -0.349
- C3U C11G G63C C86U U109G U131A — higher, -5.05
- A2G C40A G58A — higher, -1.21
- C3A U9A G52U C88G A91C G127U — higher, -1.59
- A2U A5C G63C — higher, -3.31
- A2U G69A — higher, -4.39
- A2U G69U — higher, -1.7
- A2U C72A A83U C123G U126A — higher, -0.343
- C3A A43U — higher, -2.69
- A2G A5U G71U A111U G120A — higher, -5.48
- C3A U9A C12A A83G — higher, -2.57
- C3A G36A G44C C72A U130A — higher, -4.85
- C3A U92A C114U — higher, -4.76
- A2G C73G C85A G113A G120C — higher, -3.08
- C3A G39U C114A U125G — higher, -3.98
- C3A C40A A91C G117C A119U — higher, -5.83
- C3G C102U C124A — higher, -2.89
- C3A G39A G113A C124U — higher, -3.14
- A2U G10U C15G G69U U106A — higher, -0.732
- C3A C13G C28A G51U G71C G110U — higher, -6.35
- A2U C3G C123G — higher, -0.606
- C3U A27C U130C — higher, -2.28
- A2C C72A — higher, -2.14
- C3G C8G — higher, -0.464
- C3U A41C C70G U112C C124U — higher, -3.32
- C3U C86A — higher, -0.57
- A2C G10U A37C C64U U112C — higher, -1.73
- A2C G44A G113A — higher, -4.5
- C3U A18U C82A G120C — higher, -1.8
- A2U A16G A27U A46G G60U U106A G110A — higher, -5.21
- C3G U106C C123G — higher, -1.58
- C3G U7A C11A C40A C73U C85G — higher, -4.89
- C3U C49A G120A — higher, -0.42
- A2U C8U C11G C72A — higher, -0.286
- A2U C13U C85G U131G — higher, -3.98
- A2U A37C G44A C53A G63C C124A — higher, -3.55
- A2C C123A — higher, -0.696
- C3A C4A G51A G60A A84G G120U — higher, -3.02
- C3G A83C — higher, -2.39
- C3U C13G G48U A50U U92C G120A U131A — higher, -3.5
- A2U G10U A90C G122A — higher, -3.13
- A2C C49A — higher, -1.83
- C3G C12G G120A G128U — higher, 0.37
- A2U U21G C53U G58C C72U U129A — higher, -1.46
- C3U C13G A90U A121C C124A — higher, -0.103
- A2G G58A U106A G122U C123U — higher, 0.431
- C3U C12A A75U U87C C124U — higher, 0.0602
- A2G C11A — higher, -1.77
- A2G C20A G63C C114A — higher, -3.77
- C3A U130A — higher, -2.53
- C3A G10A C13A G36U C70A U129C — higher, -5.83
- C3A G48U U125A — higher, -2.7
- C3U C34G C123U — higher, -4.64
- C3U G36U G63U C88U A111U C124U — higher, -6.17
- A2G U116A A121U — higher, -0.583
- C3A A84G — higher, -2.2
- A2G G47C U81G — higher, -3.47
- C3G C22A — higher, -4.35
- C3G U96A — higher, -3.4
- C3A C8A C11G C22A G45U C88G — higher, -5.16
- A2C C124A — higher, 0.652
- A2G G10U C88U A119U — higher, -0.34
- A2G G19U C62U C86U — higher, -3.94
- C3G U9A G71U G110C — higher, -5.18
- A2G U38G G42U G61U C73U C115U — higher, -3.74
- A2G G39U C115A — higher, -1.93
- A2G A16C C89A G120C U133A G135C — higher, -2.39
- C3U C72G — higher, -0.854
- A2G A50U U81A — higher, 0.17
- A2U G61C — higher, -3.94
- A2C C20A C79U G122U U125G — higher, -3.43
- C3G C94G C114U G128C — higher, -2.66
- A2C C13G C15U C72U — higher, -4.37
- A2U G71U — higher, -2.05
- C3U C79A G113U — higher, -5.54
- C3G G120A — higher, -1.23
- A2U U87G — higher, -2.24
- C3A C72A A111C — higher, -1.3
- A2G G48U C53G C86U C98A C123G C124A — higher, -6.57
- C3U C12U C53G C56U U106A A111C C123G G127A — higher, -5.21
- C3G C82A — higher, -2.49
- A2U C11G G122A — higher, -0.62
- A2G C8U A83G — higher, -0.602
- C3U C11A C15A A121U — higher, 0.659
- A2U A5U A27G C53G U87G — higher, -4.56
- A2U C72G — higher, -1.72
- A2U C72U — higher, -2.02
- C3U C8A C79U A121C — higher, 1.18
- A2U A46G C73U U81C — higher, -3.83
- C3G C62U — higher, -1.58
- A2G C12U C89G — higher, -0.965
- C3U C86U A95U U125G U126G — higher, -3.14
- A2U U38A G63A C88U — higher, -4.16
- C3U C12G C72U — higher, -0.647
- C3A U78C U87C C102U C124G U131A — higher, -0.482
- A2U A16U U32A A41C G69U C89A — lower, -7.42
- C3G C8G G10A A18U A41G G69C A121G — higher, -4.57
- A2C G45A C53A — higher, -1.45
- C3A U55G — higher, -1.43
- C3U C56A A68G G120C — higher, -3.32
- C3U A27G G42U C72U C82U C104U — higher, -3.31
- A2U C104U — higher, -1.41
- A2C G52A C79A A95U C123U G135A — higher, -1.79
